Data from article doi:10.1101/2022.11.21.516512.

Biological target: CTD-HAP40 complex bearing a C-terminal biotin tag (UniProt P23610)
Experiment: BLI

Sequence of UniProt P23610 (P23610 whole entry, looked up, one chain of several): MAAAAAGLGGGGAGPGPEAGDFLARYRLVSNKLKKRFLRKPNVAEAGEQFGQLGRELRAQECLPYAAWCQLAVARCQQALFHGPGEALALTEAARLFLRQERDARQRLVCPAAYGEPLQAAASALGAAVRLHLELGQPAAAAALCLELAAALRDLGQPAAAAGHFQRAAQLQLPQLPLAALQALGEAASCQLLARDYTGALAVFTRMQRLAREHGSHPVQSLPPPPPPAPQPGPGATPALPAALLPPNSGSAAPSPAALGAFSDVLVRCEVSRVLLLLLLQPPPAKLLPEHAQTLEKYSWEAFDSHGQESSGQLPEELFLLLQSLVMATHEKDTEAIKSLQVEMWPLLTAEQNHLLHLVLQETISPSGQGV

Kd: 10 nM
Substance: HTT N-terminal HEAT and bridge domain construct (NTD, aa. 97-2069) (domain or fragment)
